Read-outs that look alike come from different tables or passages of the source.
Columns and labels:
[1] = target: T1, human HER2 expressed on tumor cells (human, UniProt P04626 23-1255); experiment: flow cytometry, BT474 cells, 10 µg/mL
T1 construct: whole, on cells; Cell line is named in each row's assay

[2] = target: FcγRIIIa (176F) (UniProt P08637 17-208); experiment: BLI (ForteBio)
[3] = target: T2, FcγRI (UniProt P12314 16-288, limits assumed); experiment: BLI (ForteBio)
T2 construct: also called CD64
T2 sequence (P12314 16-288 limits assumed): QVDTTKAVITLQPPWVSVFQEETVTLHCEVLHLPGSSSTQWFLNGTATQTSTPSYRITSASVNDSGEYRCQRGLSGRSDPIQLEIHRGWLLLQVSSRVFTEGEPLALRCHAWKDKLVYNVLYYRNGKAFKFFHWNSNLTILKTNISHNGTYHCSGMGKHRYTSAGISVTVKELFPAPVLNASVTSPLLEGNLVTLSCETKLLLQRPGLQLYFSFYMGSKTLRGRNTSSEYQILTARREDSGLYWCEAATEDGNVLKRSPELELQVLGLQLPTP

[4] = target: T3, FcγRIIa (167H) (UniProt P12318 36-218, limits assumed); experiment: BLI (ForteBio)
T3 sequence (looked up): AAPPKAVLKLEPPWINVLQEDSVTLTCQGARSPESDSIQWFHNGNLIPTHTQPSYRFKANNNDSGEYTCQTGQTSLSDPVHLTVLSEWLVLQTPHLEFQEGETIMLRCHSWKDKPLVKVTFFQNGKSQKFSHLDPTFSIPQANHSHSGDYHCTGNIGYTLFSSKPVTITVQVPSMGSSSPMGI

[5] = target: FcγRIIIa (176V) (UniProt P08637 17-208, limits assumed); experiment: BLI (ForteBio)
FcγRIIIa (176V), sequence (P08637 17-208 F176V limits assumed): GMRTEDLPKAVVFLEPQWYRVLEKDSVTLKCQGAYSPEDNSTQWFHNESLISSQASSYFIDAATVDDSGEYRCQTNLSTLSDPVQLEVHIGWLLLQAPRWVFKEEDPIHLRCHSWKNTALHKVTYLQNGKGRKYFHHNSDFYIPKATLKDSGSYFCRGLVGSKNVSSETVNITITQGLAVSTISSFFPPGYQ

[6] = target: T4, recombinant human EGFR extracellular domain (human, UniProt P00533 25-645); experiment: ELISA, coated EGFR ECD
T4 construct: extracellular domain

[7] = target: T5, recombinant human HER3 extracellular domain (human, UniProt P21860 20-643); experiment: ELISA, coated HER3 ECD
T5 construct: extracellular domain

[8] = target: T6, recombinant human HER4 extracellular domain (human, UniProt Q15303 26-651); experiment: ELISA, coated HER4 ECD
T6 construct: extracellular domain
T6 sequence (looked up): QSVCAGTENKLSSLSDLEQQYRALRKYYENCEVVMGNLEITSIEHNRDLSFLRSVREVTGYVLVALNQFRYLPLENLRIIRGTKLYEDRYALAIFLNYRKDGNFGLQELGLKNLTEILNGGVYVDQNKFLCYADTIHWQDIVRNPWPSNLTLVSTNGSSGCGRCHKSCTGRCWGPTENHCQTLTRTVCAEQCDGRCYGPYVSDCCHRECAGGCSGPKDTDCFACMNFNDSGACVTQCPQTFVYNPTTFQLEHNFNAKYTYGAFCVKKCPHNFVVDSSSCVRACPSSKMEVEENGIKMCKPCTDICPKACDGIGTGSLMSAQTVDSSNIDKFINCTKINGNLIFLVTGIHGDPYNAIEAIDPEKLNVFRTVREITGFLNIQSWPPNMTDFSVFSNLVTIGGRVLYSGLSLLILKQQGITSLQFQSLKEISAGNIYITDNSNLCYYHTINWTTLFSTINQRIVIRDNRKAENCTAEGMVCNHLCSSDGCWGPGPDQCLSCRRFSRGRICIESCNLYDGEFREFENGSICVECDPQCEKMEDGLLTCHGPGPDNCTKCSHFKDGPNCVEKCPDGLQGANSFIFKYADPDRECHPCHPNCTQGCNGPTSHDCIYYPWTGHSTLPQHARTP

[9] = target: T7, recombinant human HER2 extracellular domain protein (human, UniProt P04626 23-652); experiment: BLI, Protein A capture
T7 construct: range 23-652; Range is printed for the immunogen/panning protein; also called ErbB2; recombinant HER2 protein

[10] = target: T7, recombinant human HER2 extracellular …; experiment: BLI, Protein A capture; remark: listed apart in the source

FcγRIIIa (176F), sequence (P08637 17-208 limits assumed): as the sequence (P08637 17-208 F176V limits assumed) above, with V160F counted along it

B1: Hu2117-HK201 (Fc fusion)
scFv: EVQLVESGGGLVQPGGSLRLSCAASGFTYSSYGMSWVRQAPGKGLEWVASISGGGNYAKYVDSVKGRFTISRDNSKNTLYLQMNSLRAEDTAVYYCARDYAGFFDVWGQGTLVTVSSGGGGSGGGGSGGGGSDIQMTQSPSSLSASVGDRVTITCRSSQSLVHSNRNTYLHWYQQKPGKAPKLLIYKVSNRFSGVPSRFSGSGSGTDFTLTISSLQPEDFATYFCSQSTHVPYTFGQGTKVEIK
notes: scFv-hIgG1 Fc; not shown: human IgG1 Fc
- binding result [1]: binds

B2: 04BS-1123-ST06 (bispecific antibody)
heavy: QVQLVESGGGLVQPGGSLRLSCAASGFTYSSYGMSWVRQAPGKGLEWVASISGGGSYTKYVDKVKGRFTISRDNSKNTLYLQMNSLRAEDTAVYYCARDYVGFFDVWGQGTLVTVSSGGGGSQVQLVQSGSELKKPGASVKVSCKASGYTFTDYSMHWVRQAPGQGLEWMGWINTGTGEPTYADDFKGRFTISRDTSKSTAYLQISSLKAEDTAVYYCVRVGRYDYAMDYWGQGTTVTVSSASTKGPSVFPLAPSSKSTSGGTAALGCLVKDYFPEPVTVSWNSGALTSGVHTFPAVLQSSGLYSLSSVVTVPSSSLGTQTYICNVNHKPSNTKVDKRVEPKSCDKTHTCPPCPAPEFEGGPSVFLFPPKPKDTLMISRTPEVTCVVVDVSHEDPEVKFNWYVDGVEVHNAKTKPREEQYNSTYRVVSVLTVLHQDWLNGKEYKCKVSNKALPASIEKTISKAKGQPREPQVYTLPPSRDELTKNQVSLTCLVKGFYPSDIAVEWESNGQPENNYKTTPPVLDSDGSFFLYSKLTVDKSRWQQGNVFSCSVMHEALHNHYTQKSLSLSPGK
light: DIQMTQSPSSLSASVGDRVTITCRSSQSLVHSNRNTYLHWYQQKPGKAPKLLIYKVSNRFSGVPSRFSGSGSGTDFTLTISSLQPEDFATYFCSQSTHVPYTFGQGTKVEIKGGGGSGGGGSGGGGSDIQMTQSPSSLSASVGDRVTITCRASQDVYTAVAWYQQKPGKAPKLLINLASSRPTGVPSRFSGSGSGTDFTLTISSLQPEDFATYYCQQYYSTPPTFGGGTKVEIKRTVAAPSVFIFPPSDEQLKSGTASVVCLLNNFYPREAKVQWKVDNALQSGNSQESVTEQDSKDSTYSLSSTLTLSKADYEKHKVYACEVTHQGLSSPVTKSFNRGEC
notes: also called anti-HER2 biparatopic antibody 04BS-1123-ST06
- binding result [2]: no binding
- binding result [3]: no binding
- binding result [4]: no binding
- binding result [5]: no binding
- binding result [6]: no binding
- binding result [7]: no binding
- binding result [8]: no binding

B3: mAb2128 (antibody, V domains shown)
VH: EVQLQQSGPELVKPGASVKIPCKASGYTFTDYNMDWVKQSHGKSLEWIGDINPNNGGTIYNQKFKGKATLTVDKSSSTAYMELRSLTSEDTAVYYCARYGSGYGGFAYWGQGTLVTVSS
VL: DIVLTQSPTTMAASPGEKITITCSASSSISSNYLHWYQQKPGFSPKLLIYRTSNLASGVPARFSGSGSGTSYSLTIGTMEAEDVATYYCQQGSSIPRTFGGGTKLEIK
notes: Chimeric human IgG1/Cκ
- binding result [6]: no binding
- binding result [7]: no binding
- binding result [8]: no binding
- Kd [9]: 3.44 nM
- koff [9]: 0.000949 s⁻¹
- kon [9]: 276000 M⁻¹ s⁻¹

B4: mAb2126 (antibody, human IgG1, V domains shown)
VH: QIQLAQSGPELKKPGETVKISCKASGYTFTDYSMHWVKQAPGKYLKWMGWINTETGEPTYADDFKGRFAFSLETSANTAYLQINNLKNEDTATYFCVRVGRYDYAMDYWGQGTSVTVSS
VL: DIVMTQSHKFMSTSVGDRVSITCKASQDVYTAVAWYQQKPGQSPKLLINSASYRYTGVPDRFTGSGSGTDFTFTISSVQAEDLAVYYCQQHYSTPPTFGGGTKLEIK
notes: also called anti-HER2 chimeric antibody mAb2126
- binding result [6]: no binding
- binding result [7]: no binding
- binding result [8]: no binding
- Kd [9]: 1.44 nM
- koff [9]: 9.67e-05 s⁻¹
- kon [9]: 67300 M⁻¹ s⁻¹
- Kd [10]: 5.2 nM
- koff [10]: 0.000502 s⁻¹
- kon [10]: 96600 M⁻¹ s⁻¹
